# B1: EP43max (scFv)
# chain: EIVMTQSPSTLSASVGDRVIIKCQASQSISDWLAWYQQKPGKAPKLLIYGASRLASGFPSRFSGSGSGAEFTLTISGLEPADFATYYCQQGWSDSYVDNLFGQGTKLTVLGGGGGSGGGGSGGGGSGGGGSEVQLVESGGGLVQPGGSLRLSCTVSGFSLSSGAMSWVRQAPGKGLEWVGVIISSGATYYASWAKGRFTISKDTSKNTVYLQMNSLRAEDTAVYYCARGGPDDSNSMGTFDPWGQGTLVTVSS
# Target: T1, human TNFα N-his trimer (human, UniProt P01375 77-233)
# T1 construct: Captured on an NTA sensor chip through the N-terminal His tag for Biacore; also called His-tagged TNF (made by ESBATech); not shown: N-terminal His tag
# Assay: SPR (BIAcore T100), His-tagged TNFα captured on an NTA chip, scFv as analyte
# T1 sequence (P01375 77-233 limits assumed): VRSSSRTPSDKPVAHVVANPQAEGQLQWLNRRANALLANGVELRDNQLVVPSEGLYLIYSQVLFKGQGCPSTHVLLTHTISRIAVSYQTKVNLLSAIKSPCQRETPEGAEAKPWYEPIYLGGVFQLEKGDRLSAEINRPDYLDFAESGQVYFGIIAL
binder,measurement,value
B1,Kd,250 pM

# From patent KR20210097819A (dated 2021)
